pKd: −log10 of the molar value.

A word on the pKd: it is the Kd on a negative log10 scale, so that one unit is a factor of ten. Low readings indicate a high Kd, high ones a low Kd.

For this assay, the target named is HER2 extracellular domain (HER2-ECD) (human) (UniProt P04626). Put plainly: SPR (BIAcore 2000 or 3000), Fab over immobilized HER2-ECD, 37 °C, KD = koff/kon. Background: Surface plasmon resonance follows binding to a sensor surface in real time, without labels.

On to “hu4D5-8 Fab M.7 (N30(VL)S+H91(VL)F+Y92(VL)W+T94(VL)S+D98(VH)W+Y100a(VH)F+Y102(VH)V)”, for which the pKd is 9.42.
